Experimental data published in US20250369024A1, “Acyloin Condensation Reactions, Enzymes, and Products Thereof” (Mojia Biotech Pte. Ltd., priority 2023, published 2025).

Experiments:
[1] = test system: AC440; test: Tolerance of 2HIB in AC440; assay type: cell-based, E. coli; conditions: M9-LB; cell density at 600 nm
Description: To check the tolerance of 2HIB, AC440 was grown in 5 mL of M9-LB supplemented with different concentration of 2HIB in 50 mL falcon tube, the cell density was monitored at 600 nm. The impact on growth could be observed at 25 g/L of 2HIB, while the AC440 is still able to grow and maintain its metabolic activity at the concentration of 2HIB at 75 g/L (FIG. 21), considering the cells will not suffer such high concentration of 2HIB at early stage, indicating AC440 is a good host for 2HIB production.

[2] = test system: glyoxylate; test: Growth-coupled selection of alanine dehydrogenases in glycine auxotroph strain; assay type: cell-based, E. coli; conditions: glycolate instead of glycine supplementation
[3] = test system: formate; test: Screening of formate activation enzymes with acetone and formate using growing cultures (2HIB); assay type: cell-based, E. coli; conditions: 100 mM acetone and 20 mM formate; growing cells
From the text: Since formate activation is a required step for formate utilization, we further evaluated enzymes catalyzing this reaction. Acyl-CoA synthetase (ACS) enzymes are one of the three explored routes for formate activation, which can directly generate formyl-CoA from formate with the consumption of 2 ATP equivalents (ATP is converted to AMP). […] Therefore, ACS variants were further evaluated using the new established growing cell platform with ApbHACS overexpression. In this platform, formyl-CoA generated through formate activation enzymes is further condensed with non-toxic substrate acetone to produce 2-hydroxyisobutyrate (2HIB) (FIG. 23C).
The screening of a larger group of formate activation enzymes in actively growing cells was conducted using the M9-LB medium contains 6.78 g/L Na2HPO4, 3 g/L KH2PO4, 1 g/L NH4Cl, 0.5 g/L NaCl, 2 mM MgSO4, 100 μM CaCl2), 15 μM thiamine-HCl, 10 g/L tryptone, and 5 g/L yeast extract additionally supplemented with the micronutrient solution of Neidhardt^68. […] The cells were pelleted by centrifugation and the supernatant analyzed by HPLC as described below. The expected product 2-hydroxyisobutyric acid was detected in the media indicating the performance of corresponding formate activation enzymes. […]

[4] = test system: 2-hydroxyisobutyryl-CoA; test: In vitro purified enzyme isobutene glycol production from acetone and formate, ACR comparison; assay type: biochemical; conditions: 1 μM ACR and 1 μM FucO; 50 mM formate and 200 mM acetone
Description: The enzymes acyl-CoA transferase CaAbfT, HACS ApbHACS, acyl-CoA reductase ACR (LmACR, BmACDH, PtACDH, RpPduP, StEutE), and NADH-dependent alcohol dehydrogenase FucO were overexpressed and purified as described above. In vitro purified enzyme reactions for condensation of acetone and formyl-CoA was comprised of 100 mM KPi pH 7.4, 10 mM MgCl2, 0.15 mM TPP, 4 mM NADH, 2 mM acetyl-CoA, 1 μM ApbHACL, 2 μM CaAbfT, 50 mM formate and 200 mM acetone. The mixture was incubated at 30° C. for 3 min, and then 1 μM ACR and 1 μM FucO was added, and then the reactions were incubated at 30° C. for another 5 min unless otherwise specified. 2 μL of 10 M NaOH was added to 45 μL mixture for 30 min, followed by 3 μL 10 N H2SO4, and then applied for HPLC analysis as described above.

Molecule: CC(C)(O)C(=O)O [2HIB, 2-hydroxyisobutyric acid]
- 2HIB concentration at which AC440 is still able to grow and maintain metabolic activity [1]: 75 g/L
- 2HIB concentration at which impact on growth could be observed [1]: 25 g/L

B1: BsAld: alanine dehydrogenase from Bacillus subtilis, Uniprot Q08352 (protein, UniProt Q08352 1-378, looked up)
Alanine dehydrogenase: MIIGVPKEIKNNENRVALTPGGVSQLISNGHRVLVETGAGLGSGFENEAYESAGAEIIADPKQVWDAEMVMKVKEPLPEEYVYFRKGLVLFTYLHLAAEPELAQALKDKGVTAIAYETVSEGRTLPLLTPMSEVAGRMAAQIGAQFLEKPKGGKGILLAGVPGVSRGKVTIIGGGVVGTNAAKMAVGLGADVTIIDLNADRLRQLDDIFGHQIKTLISNPVNIADAVAEADLLICAVLIPGAKAPTLVTEEMVKQMKPGSVIVDVAIDQGGIVETVDHITTHDQPTYEKHGVVHYAVANMPGAVPRTSTIALTNVTVPYALQIANKGAVKALADNTALRAGLNTANGHVTYEAVARDLGYEYVPAEKALQDESSVAGA
- growth of glycine auxotroph strain with glycolate [2]: started to grow

B2: OfFrc: acyl-CoA transferase (ACT), Oxalobacter formigenes, Uniprot O06644 (protein, UniProt O06644 2-428, looked up)
Formyl-CoA:oxalate …: TKPLDGINVLDFTHVQAGPACTQMMGFLGANVIKIERRGSGDMTRGWLQDKPNVDSLYFTMFNCNKRSIELDMKTPEGKELLEQMIKKADVMVENFGPGALDRMGFTWEYIQELNPRVILASVKGYAEGHANEHLKVYENVAQCSGGAAATTGFWDGPPTVSGAALGDSNSGMHLMIGILAALEMRHKTGRGQKVAVAMQDAVLNLVRIKLRDQQRLERTGILAEYPQAQPNFAFDRDGNPLSFDNITSVPRGGNAGGGGQPGWMLKCKGWETDADSYVYFTIAANMWPQICDMIDKPEWKDDPAYNTFEGRVDKLMDIFSFIETKFADKDKFEVTEWAAQYGIPCGPVMSMKELAHDPSLQKVGTVVEVVDEIRGNHLTVGAPFKFSGFQPEITRAPLLGEHTDEVLKELGLDDAKIKELHAKQVV
- performance on formate activation (2HIB) [3]: better performance

B3: StEutE: acyl-CoA reductase, Salmonella typhymurium, Uniprot P41793 (protein, UniProt P41793 1-467, looked up)
Acetaldehyde dehydrogenase …: MNQQDIEQVVKAVLLKMKDSSQPASTVHEMGVFASLDDAVAAAKRAQQGLKSVAMRQLAIHAIREAGEKHARELAELAVSETGMGRVDDKFAKNVAQARGTPGVECLSPQVLTGDNGLTLIENAPWGVVASVTPSTNPAATVINNAISLIAAGNSVVFAPHPAAKKVSQRAITLLNQAVVAAGGPENLLVTVANPDIETAQRLFKYPGIGLLVVTGGEAVVDAARKHTNKRLIAAGAGNPPVVVDETADLPRAAQSIVKGASFDNNIICADEKVLIVVDSVADELMRLMEGQHAVKLTAAQAEQLQPVLLKNIDERGKGTVSRDWVGRDAGKIAAAIGLNVPDQTRLLFVETPANHPFAVTEMMMPVLPVVRVANVEEAIALAVQLEGGCHHTAAMHSRNIDNMNQMANAIDTSIFVKNGPCIAGLGLGGEGWTTMTITTPTGEGVTSARTFVRLRRCVLVDAFRIV
- performance in isobutene glycol production [4]: best performance
